Literature values, collected in patent US20200247855A1, “THERAPY AND DIAGNOSTICS” (OXFORD UNIVERSITY INNOVATION LIMITED, priority 2017, published 2020).
Where two headings read alike, the source gives them in different places.

Key:
CCL8_HUMAN [1] = biological target: T1, CCL8_HUMAN (Homo sapiens, UniProt P80075); conditions: Eaton, J. R. O. et al., JBC [2018], cited from earlier work
T1 sequence (P80075 24-99): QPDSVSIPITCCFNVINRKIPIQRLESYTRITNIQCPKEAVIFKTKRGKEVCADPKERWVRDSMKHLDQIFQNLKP

chemokines = conditions: list of chemokines bound, from the literature [18,20-22]; cited from earlier work
CCL23_HUMAN = biological target: T2, CCL23_HUMAN (Homo sapiens, UniProt P55773); conditions: read-out: Kd, CCL23_HUMAN, previously described evasins; data obtained from publications [20-22,32]; cited from earlier work
T2 sequence (P55773 22-120): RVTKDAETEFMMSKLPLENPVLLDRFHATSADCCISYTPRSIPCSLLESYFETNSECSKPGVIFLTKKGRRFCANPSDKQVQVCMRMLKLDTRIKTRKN

CCL19_HUMAN = biological target: T3, CCL19_HUMAN (Homo sapiens, UniProt Q99731); conditions: read-out: Kd, CCL19_HUMAN, previously described evasins; data obtained from publications [20-22,32]; cited from earlier work
T3 sequence (Q99731 22-98): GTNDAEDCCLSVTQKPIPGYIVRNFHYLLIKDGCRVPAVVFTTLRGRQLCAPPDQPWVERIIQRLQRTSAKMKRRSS

CCL3_HUMAN = biological target: T4, CCL3_HUMAN (Homo sapiens, UniProt P10147); conditions: read-out: Kd, CCL3_HUMAN, previously described evasins; data obtained from publications [20-22,32]; cited from earlier work
T4 sequence (P10147 24-92): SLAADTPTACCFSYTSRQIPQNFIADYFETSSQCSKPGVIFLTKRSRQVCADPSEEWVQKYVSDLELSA

CCL8_HUMAN [2] = biological target: T1, CCL8_HUMAN; conditions: read-out: Kd, CCL8_HUMAN, previously described evasins; data obtained from publications [20-22,32]; cited from earlier work

B1: P672_RHIPU: tick CKBP, Rhipicephalus pulchellus (protein, listed as Rhipicephalus pulchellus)
chain: VCEVSEQEGVGEDNATEDEDYEDFFKPVTCYFANSTVGPLRPPNCTVVCTNNTAWWNDTKSDGGHCYSEYRPEKRTHSREIYNCTIGVCGNGTCIANHTYADCW
Residency time (RT) of P672:CCL8 interaction (CCL8_HUMAN [1]): 27 min
Kd (CCL8_HUMAN [1]; read-out: Kd of P672:CCL8 interaction): 8.5 nM

B2: P1243_AMBAM: tick CKBP, Amblyomma americanum; AAM-02 stated identical (protein, listed as Amblyomma americanum)
chain: RNHTEDNSTEYYDYEEARCACPARHLNNTNGTVLKLLGCHYFCNGTLCTAPDGYPCYNLTAQQVRTLTTYPNTSCAVGVCMKGTCVKNGTMEQCFKTP
Previously described chemokine binding (chemokines): CCL11, CCL24, and CCL26, CCL2, and CCL7

B3: EVASIN4: previously described tick CKBP evasin 4, from Rhipicephalus sanguineus (protein, listed as Rhipicephalus sanguineus)
chain: EVPQMTSSSAPDLEEEDDYTAYAPLTCYFTNSTLGLLAPPNCSVLCNSTTTWFNETSPNNASCLLTVDFLTQDAILQENQPYNCSVGHCDNGTCAGPPRHAQCW
Kd (CCL23_HUMAN): 4.43 nM
Kd (CCL19_HUMAN): 0.14 nM
Kd (CCL3_HUMAN): 0.06 nM
Kd (CCL8_HUMAN [2]): 0.25 nM
